Values quoted from earlier work, collected in paper PMC5432642.

Target: C3b C3b (Homo sapiens) (UniProt P01024)
Sequence (P01024 566-670): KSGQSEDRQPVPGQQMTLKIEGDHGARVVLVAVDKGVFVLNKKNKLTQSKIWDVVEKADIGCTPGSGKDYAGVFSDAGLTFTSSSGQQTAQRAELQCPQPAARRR

Chain of FH19–20 FH19-20 (P08603 1107-1231): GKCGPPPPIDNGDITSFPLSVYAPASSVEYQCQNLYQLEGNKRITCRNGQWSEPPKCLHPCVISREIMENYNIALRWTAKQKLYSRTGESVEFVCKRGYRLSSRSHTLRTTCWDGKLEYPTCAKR

Kd: 5 µM
Substance: FH19–20 FH19-20 (from UniProt P08603)
